Measurements published in US20100183588A1 (IVS INSTITUT DES VAISSEAUX ET DU SANG, published 2010).

Biological target: UNC5H4 receptor of the pericytes and smooth muscle cells
Test: cell-based or functional assay

- VSM migration: chemotactic activity relative to non-mutated netrin 4: 3000 fold over non-mutated netrin 4
- VSM proliferation: mitogenic activity relative to non-mutated netrin 4: 1000 fold over non-mutated netrin 4
B1: mutated netrin 4 (SEQ ID NO: 522), recombinant protein (ligand)
chain: LSGVAGVSSRCEKACNPRMGNLALGRKLWADTTCGQNATELYCFYSENTDLTCRQPKCDKCNAAYPHLAHLPSAMADSSFRFPRTWWQSAEDVHREKIQLDLEAEFYFTHLIVMFKSPRPAAMVLDRSQDFGKTWKPYKYFATNCSATFGLEDDVVKKGAICTPKYSSPFPCTGGEVIFKALSPPYDTENPYSAKVQEQLKITNLRVQLLKRQSYPCQRNDLNEEPQHFTHYAIYDFIVKGSCFCNGHADQCIPVHGFRPVKAPGTFHMVHGKCMCKHNTAGSHCQHCAPLYNDRPWEAADGKTGAPNECRTRKCNGHADTCHFDVNVWEASGSRSGGVCDDCQHNTEGQYCQRCKPGFYRDLRRPFSAPDACKPCSCHPVGSAVLPANSVTFCDPSNGDCPCKPGVAGRRCDRCMVGYWGFGDYGCRPCDCAGSCDPITGDCISSHTDIDWCHEVPDFRPVHNKSEPAWEWEDAQGFSALLHSGKCECKEQTLGKAKAFCGMKYSYVLKIKILSAHDKGTHVEVNVKIKKVLKSTKLKIFRGKRTLYPESWTDRGCTCPILNPGLEYLVAGHEDIRTGKLIVNMKSFVQHWKPSLGRKVMDILKRECK
